Where a chain is given by its changes, count along the chain named.

Test [1] deals with T1, NKG2A-CD94-ECD-hFc (human, UniProt P26715 94-233; Q13241 32-179, limits assumed).
T1 construct: extracellular domain; Lot 20200724002, 'provided by CP'; the two-chain layout here is only the reading of the name; also called human NKG2A (recombinant); NKG2A antigen; not shown: human Fc (hFc)
The test can be described thus: ELISA on coated NKG2A-CD94-ECD-hFc (FIG. 43D), reference IM-1062. The procedure: (§1) Methods: ELISA binding of Tribody/ProTribody antibody constructs to antigens: Dilute target protein (hCD3epsilon-His (cat # 10977-H08S, supplier Sino Biological); h5T4-His (cat# 19845-H08H, supplier Sino Biological); NKG2A-CD94-ECD-hFc, Lot:20200724002, provided by CP; or NKG2D-ECD-hFc, Lot: 20200413002, provided by CP) into PBS with final concentration of 0.01 µg/mL for hCD3epsilon-His, 0.3 µg/mL for h5T4-His, 1 µg/mL for NKG2A-CD94-ECD-hFc and 0.7 µg/mL for hNKG2D-ECD-hFc respectively and coat 100 µL/well on ELISA plate (cat: 9018, supplier Corning) respectively. Incubate O/N, 4° C. The plates were blocked with 250 µL 1% BSA in PBST for 1 hr at 37° C.Wash 4 times with PBST. All the washes are done using Biotek (Elx 405). All the Tribody set antibodies were diluted to 400 nM and make 4-fold serially dilutions (12 points, including 0 point). Add 100 µL/well diluted antibody constructs solution to plate, incubate for 1 hr at 37° C.Wash 4 times with PBST. Add 100 µL/well anti-human kappa light chain-HRP (1:10000), incubate for 0.5 hr at 37° C. Wash 4 times with PBST. 100 µL/well of TMB substrate was added and incubated at room temperature for 5 min. 100 µL/well of 1N HCl to terminate reaction. Plates were read using ELISA plate reader at 450 nm wavelength (instrunet SpectraMax M5e). […]

Test [2] has as its target T2, NKG2A/CD94 on CHO cells (CHOK1-NKG2A-CD94) (human, UniProt P26715 1-233; Q13241 1-179, limits assumed).
T2 construct: whole, on cells; also called CHO cells over-expressing NKG2A/CD94; CHO cell line over expressing ectopic NKG2A
As to the kind of experiment: FACS on CHO cells over-expressing human NKG2A (FIG. 45F). Here is the method:
(§2) Then wash the cells 3 times with 170 µL FACS buffer. Re-suspend the cells at 100 µL/well with secondary antibody (goat anti-human Ig Fab-FITC, Cat # 2085-02, Southern biotech) with 1:400 dilution and incubate the plate for 30 min at 4° C. in dark. Centrifuge the plate at 2000 rpm, 4° C. for 5 min and discard supernatant. Then wash the cells 3 times with FACS buffer and analyze the sample with FACS verse. The fluorescence intensity of the staining was measured using flow cytometer (BD, FACSVerse). The geometric mean fluorescence intensity (GMFI; median fluorescence intensity (MFI)) of set antibodies staining was calculated (BD FACSuite software). Dose-response curves were generated and EC50s for thetrispecific variants binding were calculated using GraphPad Prism software.
Results: The expressed trispecific constructs were analyzed for their binding to cells expressing endogenous CD3ε, 5T4 and NKG2A/NKG2D. […] (FIG. 45F).

For test [3], the target named is T2, NKG2A/CD94 on CHO cells …. As to the kind of experiment: FACS on CHO cells over-expressing human NKG2A (FIG. 45F), reference IM-1062. The procedure: as §2, with “Suspension cultured cells was harvested directly, and adherent cell were digested using TrypLE Express Enzyme (cat: 12604-013, supplier Life technologies). Centrifuge at 1000 rpm for 5 min and discard the supernatant. Cells are suspended at a concentration of 2×10⁶/mL in FACS buffer (2% FBS in PBS) and add 100 µL/well of cell suspension to the plate (cat #3799, supplier Corning). Centrifuging the plates at 2000 rpm for 5 min and discard the supernatant. Re-suspend the cells in 100 µL/well of Tribody set antibodies (400 nM start, 4-fold dilution, 8 point including 0 point) and incubate the plate for 60 min at 4° C. Centrifuge the plate at 2000 rpm, 4° C. for 5 min and discard supernatant. Then” for “Then”, “Then wash the cells 3 times with FACS buffer and analyze the sample with FACS verse.” left out

The target of test [4] is T1, NKG2A-CD94-ECD-hFc. As to the kind of experiment: ELISA on coated NKG2A-CD94-ECD-hFc (FIG. 43D). The procedure:
Methods: ELISA binding of Tribody/ProTribody antibody constructs to antigens: Dilute target protein (hCD3epsilon-His (cat # 10977-H08S, supplier Sino Biological); h5T4-His (cat# 19845-H08H, supplier Sino Biological); NKG2A-CD94-ECD-hFc, Lot:20200724002, provided by CP; or NKG2D-ECD-hFc, Lot: 20200413002, provided by CP) into PBS with final concentration of 0.01 µg/mL for hCD3epsilon-His, 0.3 µg/mL for h5T4-His, 1 µg/mL for NKG2A-CD94-ECD-hFc and 0.7 µg/mL for hNKG2D-ECD-hFc respectively and coat 100 µL/well on ELISA plate (cat: 9018, supplier Corning) respectively. Incubate O/N, 4° C. The plates were blocked with 250 µL 1% BSA in PBST for 1 hr at 37° C.Wash 4 times with PBST. All the washes are done using Biotek (Elx 405). All the Tribody set antibodies were diluted to 400 nM and make 4-fold serially dilutions (12 points, including 0 point). Add 100 µL/well diluted antibody constructs solution to plate, incubate for 1 hr at 37° C.Wash 4 times with PBST. Add 100 µL/well anti-human kappa light chain-HRP (1:10000), incubate for 0.5 hr at 37° C. Wash 4 times with PBST. 100 µL/well of TMB substrate was added and incubated at room temperature for 5 min. 100 µL/well of 1N HCl to terminate reaction. Plates were read using ELISA plate reader at 450 nm wavelength (instrunet SpectraMax M5e). Data Analysis was performed using Graphpad prism 5 software by using nonlinear regression (curve fit): log (agonist) vs. response, agonist is antibody concentration (nM) and response is OD value.

A further test deals with T3, NKG2D on cells (UniProt P26718 1-216, limits assumed).
T3 construct: whole, on cells
T3 sequence (looked up): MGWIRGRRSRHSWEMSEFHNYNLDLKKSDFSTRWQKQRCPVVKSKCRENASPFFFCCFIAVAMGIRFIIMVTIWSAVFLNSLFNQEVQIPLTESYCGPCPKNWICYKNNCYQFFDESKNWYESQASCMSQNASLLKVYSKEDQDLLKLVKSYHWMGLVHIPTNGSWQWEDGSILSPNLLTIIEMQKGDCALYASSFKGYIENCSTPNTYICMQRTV
The test can be described thus: FACS, data not shown.

The target in another test is T4, NKG2D-ECD-hFc (human, UniProt P26718 73-216).
T4 construct: extracellular domain; Lot 20200413002, 'provided by CP'; also called hNKG2D-ECD-hFc; not shown: human Fc (hFc)
T4 sequence (looked up): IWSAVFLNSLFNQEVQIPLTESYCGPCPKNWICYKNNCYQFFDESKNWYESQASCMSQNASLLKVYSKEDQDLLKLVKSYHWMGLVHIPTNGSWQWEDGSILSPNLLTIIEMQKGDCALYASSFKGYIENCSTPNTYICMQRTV
As to the kind of experiment: ELISA, data not shown. The procedure:
as §1

T2 sequence (P26715 whole entry, chain 1 of 2): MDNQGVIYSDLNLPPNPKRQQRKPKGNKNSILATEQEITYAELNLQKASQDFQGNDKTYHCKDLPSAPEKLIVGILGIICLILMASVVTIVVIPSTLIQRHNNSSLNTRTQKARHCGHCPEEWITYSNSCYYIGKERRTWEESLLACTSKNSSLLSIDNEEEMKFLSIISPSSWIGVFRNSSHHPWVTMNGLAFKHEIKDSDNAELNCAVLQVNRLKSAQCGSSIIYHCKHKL
T2 sequence (Q13241 whole entry, chain 2 of 2): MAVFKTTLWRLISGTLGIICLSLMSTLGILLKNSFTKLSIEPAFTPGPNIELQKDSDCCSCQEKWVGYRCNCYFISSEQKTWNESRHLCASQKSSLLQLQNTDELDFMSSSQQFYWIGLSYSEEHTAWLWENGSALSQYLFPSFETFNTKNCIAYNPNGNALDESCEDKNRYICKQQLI
T1 sequence (P26715 94-233 limits assumed, chain 1 of 2): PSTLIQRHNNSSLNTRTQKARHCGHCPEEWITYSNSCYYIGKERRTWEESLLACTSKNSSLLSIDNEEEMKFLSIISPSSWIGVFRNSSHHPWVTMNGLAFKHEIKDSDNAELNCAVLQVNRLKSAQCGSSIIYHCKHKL
T1 sequence (Q13241 32-179 limits assumed, chain 2 of 2): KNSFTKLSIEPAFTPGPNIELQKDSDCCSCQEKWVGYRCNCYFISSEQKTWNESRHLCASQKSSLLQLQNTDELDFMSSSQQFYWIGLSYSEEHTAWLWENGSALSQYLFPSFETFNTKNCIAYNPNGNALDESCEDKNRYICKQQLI

B1: IM-1272 bi-NKG2A scFv Tribody (other)
heavy: GGSGGSEVQLVESGGGLVQPGGSLRLSCAASGFTFNTYAMNWVRQAPGKGLEWVARIRSKYNNYATYYADSVKDRFTISRDDSKNTLYLQMNSLRAEDTAVYYCVRHGNFGNSYVSWFAYWGQGTMVTVSSASTKGPSVFPLAPSSKSTSGGTAALGCLVKDYFPEPVTVSWNSGALTSGVHTFPAVLQSSGLYSLSSVVTVPSSSLGTQTYICNVNHKPSNTKVDKRVEPKSCPPCGGGGSDIQMTQSPSSLSASVGDRVTITCRASENIYSYLAWYQQKPGKAPKLLIYNAKTLAEGVPSRFSGSGSGTDFTLTISSLQPEDFATYYCQHHYGTPRTFGGGTKVEIKGGGGSGGGGSGGGGSQVQLVQSGAEVKKPGASVKVSCKASGYTFTSYWMNWVRQAPGQGLEWMGRIDPYDSETHYAQKLQGRVTMTTDTSTSTAYMELRSLRSDDTAVYYCARGGYDFDVGTLYWFFDVWGQGTTVTVSSGGGGSDIQMTQSPSSLSASVGDRVTITCRASENIYSYLAWYQQKPGKAPKLLIYNAKTLAEGVPSRFSGSGSGTDFTLTISSLQPEDFATYYCQHHYGTPRTFGGGTKVEIKGGGGSGGGGSGGGGSQVQLVQSGAEVKKPGASVKVSCKASGYTFTSYWMNWVRQAPGQGLEWMGRIDPYDSETHYAQKLQGRVTMTTDTSTSTAYMELRSLRSDDTAVYYCARGGYDFDVGTLYWFFDVWGQGTTVTVSS
light: GGSGGSQAVVTQEPSLTVSPGGTVTLTCRSSTGAVTTSNYANWVQQKPGQAPRGLIGGTNKRAPGTPARFSGSLLGGKAALTLSGVQPEDEAEYYCALWYSNLWVFGGGTKLTVLGQPKAAPSVTLFPPSSEELQANKATLVCLISDFYPGAVTVAWKADSSPVKAGVETTTPSKQSNNKYAASSYLSLTPEQWKSHRSYSCQVTHEGSTVEKTVAPTECPPCSGGGSDIQMTQSPSSLSASVGDRVTITCRASQGISNYLAWFQQKPGKAPKSLIYRANRLQSGVPSRFSGSGSGTDFTLTISSLQPEDVATYYCLQYDDFPWTFGQGTKLEIKGGGGSGGGGSGGGGSGGGGSQVQLVQSGAEVKKPGASVKVSCKASGYTFTSFWMHWVRQAPGQGLEWMGRIDPNRGGTEYNEKAKSRVTMTADKSTSTAYMELSSLRSEDTAVYYCAGGNPYYPMDYWGQGTTVTVSS
notes: Tribody with anti-CD3 Fab, anti-5T4 scFv and two anti-NKG2A scFv in tandem
With B1, the results for the “fold improved binding affinity against IM-1062” value (with NKG2A-CD94-ECD-hFc [1]; in test [3]) were ~60 fold and ~80 fold, respectively. The figures for the EC50 (in test [2]; with NKG2A-CD94-ECD-hFc [4]) were 0.4 nM and 0.2 nM, respectively.

B2: IM-1091 Tribody, NKG2D mutant variant (other)
heavy: GGSGGSEVQLVESGGGLVQPGGSLRLSCAASGFTFNTYAMNWVRQAPGKGLEWVARIRSKYNNYATYYADSVKDRFTISRDDSKNTLYLQMNSLRAEDTAVYYCVRHGNFGNSYVSWFAYWGQGTMVTVSSASTKGPSVFPLAPSSKSTSGGTAALGCLVKDYFPEPVTVSWNSGALTSGVHTFPAVLQSSGLYSLSSVVTVPSSSLGTQTYICNVNHKPSNTKVDKRVEPKSCPPCGGGGSQSALTQPASVSGSPGQSITISCSGSSSNIGNNAVNWYQQLPGKAPKLLIYADDLLPSGVSDRFSGSKSGTSAFLAISGLQSEDEADYYCAAWDDSLNGPVFGGGTKLTVLGGGGSGGGGSGGGGSGGGGSQVQLVESGGGLVKPGGSLRLSCAASGFTFSSYGMHWVRQAPGKGLEWVAFIRYDGSNKYYADSVKGRFTISRDNSKNTLYLQMNSLRAEDTAVYYCAKDAGEGDGTYFDYWGQGTTVTVSS
light: B1 light
notes: CD3/5T4/NKG2D Tribody with mutated anti-NKG2D arm
On to B2, for which the binding result in the test with NKG2D on cells and with NKG2D-ECD-hFc was “no binding” in each case.

B3: IM-1273 bi-NKG2A scFv Tribody, CD3 mutant variant (other)
heavy: B1 heavy with R58G, K60G, Y61G, N63G, N112A, Y114A, V115R
light: B1 light with T37R, S38G, Y40A, K61A, W99G, N102G
notes: Two anti-NKG2A scFv in tandem, CD3 arm mutated; also called IM-1273 CD3 mutant variant
As to B3, the “fold improved binding affinity against IM-1062” value with NKG2A-CD94-ECD-hFc [1] is ~60 fold; in test [3], ~80 fold. Moreover, the EC50 was found to be 0.2 nM in test [2] and 0.1 nM in the test with NKG2A-CD94-ECD-hFc [4].

For the origin of these results see patent publication US20230312753A1 (IMMUNORIZON, published 2023).
